Measurements taken from patent US9322000B2, “Methanol dehydrogenase enzymes from Bacillus” (Sinvent AS, priority 2012, dated 2016).
Entries after “also recorded” stand apart in the source; their conditions may differ.

Columns and labels:
[1] = Methanol dehydrogenase assay of purified recombinant MDH proteins (NADH production at 340 nm); format: biochemical
Description: (§1) Alcohol dehydrogenase activities were measured spectrophotometrically essentially as described previously (Hektor, Kloosterman et al. (2002) Chem 277(49): 46966-46973) and the reaction mixture contained: 100 mM Glycine-KOH pH 9.5 (unless otherwise stated), 5 mM MgSO4, 0.5 mM NAD^+ and 500 mM alcohol (methanol, ethanol, propanol, 1,3-propanediol, or butanol). NAD^+ was substituted with equal concentrations of NADP^+, FMN^+, and FAD^+, when indicated. The reaction mixture for measurements of formaldehyde reductase activity contained: 50 mM Potassium-phosphate buffer pH=6.7, 0.15 mM NADH, 1 mM DTT and 11.6 mM (0.1-116 mM) formaldehyde. The assay components were mixed in the cuvette and pre-warmed to 45° C., unless otherwise stated. The reactions were started by addition of 5-40 μg of the purified MDH proteins, and the production of NADH was monitored at 340 nm for 4 minutes. One unit of MDH activity was defined as the amount of enzyme needed to produce 1 μmol NADH per minute under the conditions described above. Purified Act (0.1-40 μg) or NudF (20 μg) proteins were added to the reaction mixtures as indicated in the text.
(§2) The purified MDH and Act proteins (20 μg) were used in the kinetic experiments performing the methanol dehydrogenase and the formaldehyde dehydrogenase assays essentially as described above. […] For determination of the Km for NAD^+ (Km,NAD+) and Vmax, the methanol concentration was kept constant at a saturating level (500 mM), while the concentration of NAD^+ was varied (5-1000 μM). […] Act (20 μg) was added to the reaction mixtures for determination of Kμ,MεOH and Vmax values in the presence of this activator, as indicated in the text. In general, the slopes of activity versus time were linear in the measured period (data not shown). Km and Vmax values were calculated by using nonlinear regression with the Microsoft Excel solver-tool to fit the measured data to the Michaelis-Menten equation, as described previously (Jakobsen et al., (2009) Appl Environ Microbiol 75(3): 652-661). The values obtained from the regression were then compared to the values obtained from Lineweaver-Burk and Hanes-Woolf plots to ensure that the global minimum, not a local minimum, had been found.

[2] = Formaldehyde reductase assay of purified MDH proteins; format: biochemical; conditions: 45° C., formaldehyde reductase activity
Description: as §1, §2

[3] = Substrate specificity of purified MDH proteins on alternative alcohols; format: biochemical; conditions: all alternative alcohol substrates
Description: FIG. 3. Catalytic activities of purified Mdh (black), Mdh2 (dark grey) and Mdh3 (light grey) on various alcohols (200 mM) tested in vitro. (A) Substrate specificity was analysed for MDHs from B. methanolicus MGA3 in vitro. Alcohol substrates were used at concentrations of 500 mM except for pentanol (300 mM) and hexanol (50 mM). The data were calculated from the mean value from two experiments which were done in triplicate. (B) Substrate specificity for MDHs from B. methanolicus PB1 was analysed in vitro. Alcohol substrates were used at concentrations of 500 mM except for pentanol (300 mM) and hexanol (50 mM). The data were calculated from the mean value from two experiments which were done in triplicate.
Alcohol dehydrogenase activities were measured spectrophotometrically essentially as described previously (Hektor, Kloosterman et al. (2002) Chem 277(49): 46966-46973) and the reaction mixture contained: 100 mM Glycine-KOH pH 9.5 (unless otherwise stated), 5 mM MgSO4, 0.5 mM NAD^+ and 500 mM alcohol (methanol, ethanol, propanol, 1,3-propanediol, or butanol). NAD^+ was substituted with equal concentrations of NADP^+, FMN^+, and FAD^+, when indicated. […] The reactions were started by addition of 5-40 μg of the purified MDH proteins, and the production of NADH was monitored at 340 nm for 4 minutes. […]

[4] = Heat stability: pre-incubation of purified MDHs at 45° C. or 60° C. prior to the enzyme assay; format: biochemical; conditions: preincubation at 60° C.; compared to the remaining MDHs
Description: FIG. 5. (A) Temperature stability of MGA3 Mdh, Mdh2 and Mdh3 was tested in vitro. Enzymes were incubated at 45° C. or at 60° C. prior to the enzyme assay. (B) Temperature stability of PB1 Mdh, Mdh1 and Mdh2 was tested in vitro. Enzymes were incubated at 45° C. or at 60° C. prior to the enzyme assay.
The heat stability of the six MDHs was tested by pre-incubation of the proteins at 45° C. and 60° C. and samples were taken at different time points for enzyme assays. As expected, all enzymes retained essentially all catalytic activity upon preincubations at 45° C. (FIG. 5). […] A selection of the experiments was repeated in the presence of equal amounts of purified Act, and this had no effect on temperature stability for any of the MDHs (data not shown).

[5] = In vitro Mdh activity in crude cell extracts of recombinant E. coli; format: biochemical; conditions: −Act, expressed in E. coli, crude cell extract
Description: (§3) The genes coding for Mdh and the Mdh activator protein Act were amplified from pET21a-plasmids harboring genes from B. methanolicus strains MGA3 (mdh-MGA3, mdh2-MGA3, mdh3-MGA3 and act-MGA3) and PB1 (mdh-PB1, mdh1-PB1 and mdh2-PB1). The genes were then cloned either into the pSEVA424 plasmid (mdh genes) or in the pSEVA131 plasmid (act gene). For cloning of mdh-MGA3, mdh-PB1, mdh1-PB1 and act-MGA3, EcoRI and HindIII restrictions sites were used, while mdh2-MGA3, mdh2-PB1 and mdh3-MGA3 were cloned by using EcoRI and PstI restriction sites. The resulting expression vectors were transformed into electrocompetent wt E. coli K-12 (BW25113) and into E. coli K-12 (BW25113) with a deleted frmA gene.
(§4) Expression Experiments For expression experiments, the cells were cultivated in either Luria-Bertani (LB) medium for in vitro assays or in M9 medium for in vivo assays both containing 20 μg/ml streptomycin for pSEVA424. When Act was co-expressed the medium was supplemented with 100 μg/ml ampicillin. Expression was induced when cells reached OD 0.5 (for in vitro tests) or OD 1 (for in vivo tests) by adding 0.1 mM IPTG (final concentration) for 6 hours. Cells were then harvested by centrifugation. For in vitro assays, crude cell extract was prepared by lysing the cells in a French press following ultracentrifugation. Alternatively, cells were resuspended in M9-medium without glucose for in vivo activity measurements. Enzyme Assays
In vitro measurements of Mdh activity: For determination of Mdh activity in crude cell extracts, the Mdh dependent formation of NADH was monitored at 340 nm. The assays were performed either at 37° C. or 45° C. in prewarmed buffer solutions. The Mdh assay contained 10-20 μg enzyme, 50 mM K2HPO4-buffer, pH7.4, 2.5 mM MgCl and 0.5 mM of NAD^+ (final concentrations). After 5 min of preincubation, the reaction was started with 1 M of methanol (final concentration).

[6] = In vivo Mdh activity in cell suspensions of recombinant E. coli (formaldehyde accumulating in supernatant); format: cell-based; conditions: 37° C., −Act; E. coli cell suspension
Description: as §3, §4
In vivo measurements of Mdh activity: For determination of Mdh activity in cell suspensions, cells were harvested after IPTG induction, washed and resuspended in M9-medium without glucose and IPTG. OD600 was set to 1 for normalization. […] The assay was started by addition of 1 M methanol and subsequent measurement of accumulating formaldehyde in the supernatant resulting from the methanol dehydrogenase catalyzed oxidation of methanol. The calculated activities were based on the assumption that 1 l of an OD1 culture contains 0.3 g biomass of which 50% is protein.

B1: Mdh2-PB1: NAD-dependent methanol dehydrogenase encoded by chromosomal gene mdh2-PB1 of B. methanolicus PB1, SEQ ID NO. 6 (protein)
chain: MTNTQSIFYIPSVNLFGPGSVNEVGTRLAGLGVKKALLVTDAGLHGLGLSEKIASIIREAGVEVLIFPKAEPNPTDKNVAEGLEVYNAENCDSIVTLGGGSSHDAGKGIALVAANGGTIYDYEGVDKSKKPMVPLIAINTTAGTGSELTRFTIITDTERKVKMAIVDKHVTPTLSINDPELMVGMPPSLTAATGLDALTHAIEAYVSTAATPITDALAIQAIKIISKYLPRAFANGKDMEAREQMAFAQSLAGMAFNNASLGYVHAIAHQFGGFYNFPHGVCNAILLPHVCRFNLISKVERFAEIAALLGENVAGLSTREAAEKGIKAIERMAKDLNIPRGFKELGAKEEDIVTLAENAMKDATALTNPRKPKLEEVIQIIKNAM
modifications: Bacillus methanolicus PB1
Vmax, variable substrate Methanol + Act ([1]; 45° C., pH 9.5, 20 μg MDH + 20 μg Act): 0.24 U/mg
Km ([1]; 45° C., pH 9.5, 20 μg MDH + 20 μg Act, read-out: Km, variable substrate Methanol + Act): 36 mM
Vmax, variable substrate Methanol ([1]; 45° C., pH 9.5, absence of Act): 0.065 U/mg
reduction of Km,MeOH in the presence of Act ([1]; Act added vs. no Act): 4 fold
Vmax, variable substrate Formaldehyde [2]: 1.12 U/mg
Km ([2]; read-out: Km, variable substrate Formaldehyde): 1.3 mM
catalytic activity on alternative alcohols compared with the remaining MDHs [3]: significantly higher catalytic activity than the remaining enzymes
temperature stability in vitro (in words) [4]: Higher Temperature Stabilities; also recorded: only moderate negative effects; also recorded: improved thermostability
In vitro activity ([5]; 37° C.): 33 mU/mg
In vitro activity ([5]; 45° C.): 103 mU/mg
In vivo activity [6]: 3 mU/mg
